Positions count from the first letter of the chain named.
B1: recombinant Drosophila septin hexamers (DSep1-msfGFP, DSep2, Peanut) (complex)
chain 1: MADTKGFSSIETPGYVGFANLPNQVHRKSVKKGFEFTLMVVGESGLGKSTLVNSLFLTDLYPERIIPDAIEKQKQTVKLEASTVEIEERGVKLRLTVVDTPGFGDAIDNSNSFGAILEYIDEQYERFLRDESGLNRRNIVDNRIHCCFYFISPFGHGLKPLDVEFMKKLHSKVNIVPVIAKADCLTKKEILRLKCRIMQEIESHGIKIYPLPDCDSDEDEDYKEQVKQLKEAVPFAVCGANTLLEVKGKKVRGRLYPWGVVEVENPDHCDFIKLRTMLITHMQDLQEVTQEVHYENYRSDRLAKGIKGKENGVKAERDSSSQVVSNSVLGEKDRILQEKEAELRRMQEMLAQMQARMQAQQ
chain 2: MSVEVDFVDKKEVHLRTLKQSGHVGFDSLPDQLVNKSVQNGFVFNVMCIGETGLGKSTLMDTLFNTSFESTPSPHTLPSVKLKAHTYELQESNVRLKLTICDTVGYGDQINKDDSFKAVVDYIDAQFENYLQEELKIKRSLVTCHDSRIHICLYFICPTGHGLKSLDLVCMKKLDSKVNIIPVIAKADTISKVELQRFKAKIIQELNANGVHIYQFPTDDETVAETNTSMNSHIPFAVVGSTEFIKVGNKLIRARQYPWGTVQVENETHCDFVKLREMLIRTNMEDMREKTHTRHYELYRQKRLEQMGFSDVDSDNKPISFQQTFEAKRSNHLAELQSKEEEVRQMFVQRVKEKEAELKESEKDLHAKFEKLKRDHAEEKRKLEESRKALEEDYLDFQRRKQQLATAHHTLTLGKSKKK
chain 3: MNSPRSNAVNGGSGGAISALPSTLAQLALRDKQQAASASASSATNGSSGSESLVGVGGRPPNQPPSVPVAASGKLDTSGGGASNGDSNKLTHDLQEKEHQQAQKPQKPPLPVRQKPMEIAGYVGFANLPNQVYRKAVKRGFEFTLMVVGASGLGKSTLINSMFLSDIYNAEQYPGPSLRKKKTVAVEATKVMLKENGVNLTLTVVDTPGFGDAVDNSNCWVPILEYVDSKYEEYLTAESRVYRKTISDSRVHCCLYFIAPSGHGLLPLDIACMQSLSDKVNLVPVIAKADTMTPDEVHLFKKQILNEIAQHKIKIYDFPATLEDAAEEAKTTQNLRSRVPFAVVGANTIIEQDGKKVRGRRYPWGLVEVENLTHCDFIALRNMVIRTHLQDLKDVTNNVHYENYRCRKLSELGLVDGKARLSNKNPLTQMEEEKREHEQKMKKMEAEMEQVFDMKVKEKMQKLRDSELELARRHEERKKALELQIRELEEKRREFEREKKEWEDVNHVTLEELKRRSLGANSSTDNVDGKKEKKKKGLF
B2: SEPT2-msfGFP human septin octamers containing SEPT9_i1 (complex)
chain 1: MSKQQPTQFINPETPGYVGFANLPNQVHRKSVKKGFEFTLMVVGESGLGKSTLINSLFLTDLYPERVIPGAAEKIERTVQIEASTVEIEERGVKLRLTVVDTPGYGDAINCRDCFKTIISYIDEQFERYLHDESGLNRRHIIDNRVHCCFYFISPFGHGLKPLDVAFMKAIHNKVNIVPVIAKADTLTLKERERLKKRILDEIEEHNIKIYHLPDAESDEDEDFKEQTRLLKASIPFSVVGSNQLIEAKGKKVRGRLYPWGVVEVENPEHNDFLKLRTMLITHMQDLQEVTQDLHYENFRSERLKRGGRKVENEDMNKDQILLEKEAELRRMQEMIARMQAQMQMQMQGGDGDGGALGHHV
chain 2: MAATDIARQVGEGCRTVPLAGHVGFDSLPDQLVNKSVSQGFCFNILCVGETGLGKSTLMDTLFNTKFEGEPATHTQPGVQLQSNTYDLQESNVRLKLTIVSTVGFGDQINKEDSYKPIVEFIDAQFEAYLQEELKIRRVLHTYHDSRIHVCLYFIAPTGHSLKSLDLVTMKKLDSKVNIIPIIAKADAISKSELTKFKIKITSELVSNGVQIYQFPTDDESVAEINGTMNAHLPFAVIGSTEELKIGNKMMRARQYPWGTVQVENEAHCDFVKLREMLIRVNMEDLREQTHTRHYELYRRCKLEEMGFKDTDPDSKPFSLQETYEAKRNEFLGELQKKEEEMRQMFVQRVKEKEAELKEAEKELHEKFDRLKKLHQDEKKKLEDKKKSLDDEVNAFKQRKTAAELLQSQGSQAGGSQTLKRDKEKKN
chain 3: MSVSARSAAAEERSVNSSTMVAQQKNLEGYVGFANLPNQVYRKSVKRGFEFTLMVVGESGLGKSTLINSLFLTDLYSPEYPGPSHRIKKTVQVEQSKVLIKEGGVQLLLTIVDTPGFGDAVDNSNCWQPVIDYIDSKFEDYLNAESRVNRRQMPDNRVQCCLYFIAPSGHGLKPLDIEFMKRLHEKVNIIPLIAKADTLTPEECQQFKKQIMKEIQEHKIKIYEFPETDDEEENKLVKKIKDRLPLAVVGSNTIIEVNGKRVRGRQYPWGVAEVENGEHCDFTILRNMLIRTHMQDLKDVTNNVHYENYRSRKLAAVTYNGVDNNKNKGQLTKSPLAQMEEERREHVAKMKKMEMEMEQVFEMKVKEKVQKLKDSEAELQRRHEQMKKNLEAQHKELEEKRRQFEDEKANWEAQQRILEQQNSSRTLEKNKKKGKIF
chain 4: MKKSYSGGTRTSSGRLRRLGDSSGPALKRSFEVEEVETPNSTPPRRVQTPLLRATVASSTQKFQDLGVKNSEPSARHVDSLSQRSPKASLRRVELSGPKAAEPVSRRTELSIDISSKQVENAGAIGPSRFGLKRAEVLGHKTPEPAPRRTEITIVKPQESAHRRMEPPASKVPEVPTAPATDAAPKRVEIQMPKPAEAPTAPSPAQTLENSEPAPVSQLQSRLEPKPQPPVAEATPRSQEATEAAPSCVGDMADTPRDAGLKQAPASRNEKAPVDFGYVGIDSILEQMRRKAMKQGFEFNIMVVGQSGLGKSTLINTLFKSKISRKSVQPTSEERIPKTIEIKSITHDIEEKGVRMKLTVIDTPGFGDHINNENCWQPIMKFINDQYEKYLQEEVNINRKKRIPDTRVHCCLYFIPATGHSLRPLDIEFMKRLSKVVNIVPVIAKADTLTLEERVHFKQRITADLLSNGIDVYPQKEFDEDSEDRLVNEKFREMIPFAVVGSDHEYQVNGKRILGRKTKWGTIEVENTTHCEFAYLRDLLIRTHMQNIKDITSSIHFEAYRVKRLNEGSSAMANGVEEKEPEAPEM
B3: SEPT2-msfGFP human septin hexamers (complex)
chain 1: B2 chain 1
chain 2: B2 chain 2
chain 3: B2 chain 3
B4: SEPT2-msfGFP human septin octamers containing SEPT9_i3 (complex)
chain 1: B2 chain 1
chain 2: B2 chain 2
chain 3: B2 chain 3
chain 4: MERDRISALKRSFEVEEVETPNSTPPRRVQTPLLRATVASSTQKFQDLGVKNSEPSARHVDSLSQRSPKASLRRVELSGPKAAEPVSRRTELSIDISSKQVENAGAIGPSRFGLKRAEVLGHKTPEPAPRRTEITIVKPQESAHRRMEPPASKVPEVPTAPATDAAPKRVEIQMPKPAEAPTAPSPAQTLENSEPAPVSQLQSRLEPKPQPPVAEATPRSQEATEAAPSCVGDMADTPRDAGLKQAPASRNEKAPVDFGYVGIDSILEQMRRKAMKQGFEFNIMVVGQSGLGKSTLINTLFKSKISRKSVQPTSEERIPKTIEIKSITHDIEEKGVRMKLTVIDTPGFGDHINNENCWQPIMKFINDQYEKYLQEEVNINRKKRIPDTRVHCCLYFIPATGHSLRPLDIEFMKRLSKVVNIVPVIAKADTLTLEERVHFKQRITADLLSNGIDVYPQKEFDEDSEDRLVNEKFREMIPFAVVGSDHEYQVNGKRILGRKTKWGTIEVENTTHCEFAYLRDLLIRTHMQNIKDITSSIHFEAYRVKRLNEGSSAMANGVEEKEPEAPEM
B5: recombinant mammalian SEPT2-, SEPT6-, SEPT7-containing hexamers (mouse SEPT2, human SEPT6, human SEPT7ΔN19) (complex)
chain 1: B2 chain 1 with V67I, N207S, G352S, G354S, H359Q
chain 2: B2 chain 2
chain 3: MVAQQKNLEGYVGFANLPNQVYRKSVKRGFEFTLMVVGESGLGKSTLINSLFLTDLYSPEYPGPSHRIKKTVQVEQSKVLIKEGGVQLLLTIVDTPGFGDAVDNSNCWQPVIDYIDSKFEDYLNAESRVNRRQMPDNRVQCCLYFIAPSGHGLKPLDIEFMKRLHEKVNIIPLIAKADTLTPEECQQFKKQIMKEIQEHKIKIYEFPETDDEEENKLVKKIKDRLPLAVVGSNTIIEVNGKRVRGRQYPWGVAEVENGEHCDFTILRNMLIRTHMQDLKDVTNNVHYENYRSRKLAAVTYNGVDNNKNKGQLTKSPLAQMEEERREHVAKMKKMEMEMEQVFEMKVKEKVQKLKDSEAELQRRHEQMKKNLEAQHKELEEKRRQFEDEKANWEAQQRILEQQNSSRTLEKNKKKGKIF

Target: the molecule itself
Assay: spinning disk fluorescence microscopy of septin polymerisation

Protein	binding result
B1	binds
B2	binds
B3	binds
B4	binds

Target: the molecule itself
Assay: negative-stain electron microscopy of septin polymerisation

Protein	binding result
B2	binds
B3	binds
B5	binds

From paper doi:10.1101/2021.01.21.427698 (bioRxiv, 2021)
